One experiment addresses DR3-Fc (UniProt Q93038). Description: ELISA. Background: ELISA stands for enzyme-linked immunosorbent assay.
A further experiment deals with T1, DcR3-Fc (UniProt O95407 30-300).
T1 sequence (looked up): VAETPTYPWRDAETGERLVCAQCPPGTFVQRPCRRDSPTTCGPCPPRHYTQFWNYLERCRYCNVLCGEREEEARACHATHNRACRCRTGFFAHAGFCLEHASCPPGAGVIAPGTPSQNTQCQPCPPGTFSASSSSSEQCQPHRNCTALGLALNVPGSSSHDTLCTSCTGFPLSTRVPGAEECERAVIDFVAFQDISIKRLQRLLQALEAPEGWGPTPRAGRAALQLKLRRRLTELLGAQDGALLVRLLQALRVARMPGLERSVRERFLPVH
Description: ELISA.

DR3-Fc, sequence (Q93038 25-199): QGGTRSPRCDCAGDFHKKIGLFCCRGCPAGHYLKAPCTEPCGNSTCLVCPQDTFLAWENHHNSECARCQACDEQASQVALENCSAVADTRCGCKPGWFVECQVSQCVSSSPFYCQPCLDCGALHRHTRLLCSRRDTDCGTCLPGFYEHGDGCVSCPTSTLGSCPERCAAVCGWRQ

In the experiment with DR3-Fc, TL1A-R32A (ligand) came in with a decrease in binding against wild-type TL1A of 50%.

B1: human TL1A (extracellular domain, recombinant) (ligand, UniProt O95150 57-251, looked up)
chain: SQLRAQGEACVQFQALKGQEFAPSHQQVYAPLRADGDKPRAHLTVVRQTPTQHFKNQFPALHWEHELGLAFTKNRMNYTNKFLLIPESGDYFIYSQVTFRGMTSECSEIRQAGRPNKPDSITVVITKVTDSYPEPTQLLMGTKSVCEVGSNWFQPIYLGAMFSLQEGDKLMVNVSDISLVDYTKEDKTFFGAFLL
modifications: biotin (single-site biotinylated, site not stated) in the competition ELISA
Take B1: in the experiment with DcR3-Fc, the binding result is given as “binds”.

Source of the values: article PMC5973687 (mAbs, 2018).
